Results reported in the supplement of paper PMC10567573.

B1: SMOC2 (parent)
chain: QKPLCASDGRTFLSRCEFQRAKCK

Variants of: B1
Experiment: protein stability index of a GFP-peptide fusion (GPS, HEK-293T) (PSI 1-6); higher = more stable
Conditions: c terminus: a fixed tail appended
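Also: lentivirally expressed fusions sorted by FACS into six bins by GFP to DsRed ratio, PSI derived from sequencing read proportions per bin multiplied by bin number.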

Protein stability index, by site and new letter:
R10: V 4.03 | A 3.24 | N 1.99 | I 2.53 | W 2.58 | C 2.89 | Q 3.33 | S 3.84 | E 3.27 | H 2.71 | P 3.11 | T 3.54 | M 2.72 | D 3.76 | F 2.95 | L 3.04
S7: M 1.67 | L 2.82 | F 2.8 | Q 2 | Y 2.15 | C 1.82 | V 2.59 | N 3.76 | P 3.45 | I 2.31 | H 2.57 | W 2.85 | D 3.36 | E 2.86
C5: N 4.28 | D 3.29 | Y 2.38 | S 2.91 | R 2.5 | F 2.01 | Q 2.88 | G 2.44 | K 2.19 | A 3.31 | T 3.41 | I 1.74 | V 3.16 | W 2.31 | P 2.94
K22: I 2.27 | T 2.71 | L 2.11 | F 2.65 | P 2.88 | E 2.76 | R 2.95 | N 3.07 | M 2.36 | D 2.9 | G 3.29
F18: G 4.44 | P 3.49 | I 4.24 | N 4.19 | K 4.62 | S 3.82 | R 4.37 | A 3.93 | Y 2.21 | M 3.67 | W 1.6 | H 4.32
K2: S 2.93 | R 3.47 | C 2.03 | I 3.51 | L 2.99 | W 2.48 | A 2.61 | V 2.97 | F 2.75 | E 3.78 | D 3.62 | Y 2.48 | G 3.16 | T 3.18
E17: N 3.29 | W 1.54 | T 3.3 | L 2.29 | M 2.6 | A 3.31 | P 3.07 | H 2.84 | S 2.68 | V 2.82 | D 2.11 | R 3.5 | Q 4.38 | Y 3.05
F12: R 3.73 | L 2.97 | A 3.84 | I 3.4 | E 4.5 | T 3.63 | Y 2.49 | M 3.16 | V 3.92 | G 3.93 | W 2.34 | S 4.83 | P 4 | C 2.97
Q19: A 2.98 | P 3.28 | G 3.15 | Y 3.13 | M 3.09 | W 1.55 | C 3.48 | N 3.34 | I 3 | S 4.18 | K 3.67 | T 3.36 | F 2.53 | H 3.58 | D 3.83
K24: Q 2.64 | P 2.83 | M 2.62 | D 3.35 | C 1.98 | S 2.88 | L 2.5 | Y 2.49 | H 2.76 | I 2.23 | F 1.92 | N 2.48 | G 2.95 | T 3.18
S14: K 2.93 | D 3.21 | A 3.42 | G 3.44 | Q 3.25 | Y 2.71 | H 3.73 | W 2.21 | L 3.76 | F 2.64 | M 3.66 | E 3.08 | I 2.48 | V 3.22 | C 2.82
C23: T 2.84 | G 3.62 | D 3.92 | E 3.32 | M 3.15 | I 3.41 | A 2.9 | P 4.01 | S 3.69 | L 3.03 | R 4.18 | Y 1.85 | Q 3.91 | N 4
P3: Y 2.83 | E 4.05 | G 2.5 | A 2.36 | Q 2.28 | V 2.31 | H 2.17 | F 1.89 | K 2.42 | T 2.81 | N 2.2
T11: I 2.71 | E 3.89 | G 2.6 | A 3.12 | F 2.09 | K 4.04 | S 3.14 | P 3.37 | C 2.05 | Q 3.74 | M 2.89 | W 2.81 | H 2.38 | V 2.33 | R 2.52
L4: T 2.65 | R 3.25 | D 3.83 | N 3.08 | V 2.52 | E 3.77 | Y 1.99 | P 2.79 | I 2.31 | Q 2.81 | K 2.52
D8: C 1.63 | T 2.9 | M 2.63 | A 2.37 | K 2.56 | L 1.97 | Q 1.93 | R 3.23 | V 2.76 | Y 2.67 | H 2.52 | N 2.77 | P 2.75
A6: R 2.74 | I 2.74 | M 2.48 | T 2.42 | Y 2.71 | N 2.63 | C 2.57 | D 2.9 | V 3.69 | S 3.44 | Q 3.21 | L 2.47 | W 2.69 | H 3.61 | P 3.32
A21: Y 2.58 | I 3.14 | G 3.68 | F 2.44 | S 3.14 | M 2.88 | K 3.9 | H 2.7 | V 2.96 | W 1.85 | P 3.98 | N 2.68 | T 3.4 | L 2.48
L13: T 3.93 | Y 2.52 | R 3.15 | G 3.31 | W 3.46 | A 1.9 | C 3.51 | I 2.82 | S 2.44 | E 3.72 | D 4.78 | H 3.31 | K 3.3
R15: C 3.06 | L 3.65 | A 3.65 | W 3.32 | V 3.71 | I 3.77 | M 2.92 | P 4.64 | E 4.14 | H 3.79 | G 3.93 | K 4.2 | D 4.47 | Y 3.09 | F 3.18 | Q 3.45
Q1: N 3.36 | Y 2.97 | K 3.41 | E 3.39 | C 1.87 | I 2.19 | M 2.78 | H 2.48 | G 3.23 | L 2.17 | P 2.64 | V 2.58 | A 2.81
C16: P 3.57 | H 4.04 | I 1.79 | R 4.44 | W 2.89 | M 3.43 | S 3.83 | N 4.28 | D 4.62 | K 3.9 | E 4.62 | L 2.55 | Y 3.06 | F 3.86 | V 2.61 | T 3.96
R20: Q 3.52 | H 2.77 | I 3.39 | C 3.45 | F 2.29 | T 3.83 | W 2.4 | G 3.58 | V 2.9 | N 3.1 | S 3.19 | K 3.47 | P 3.61 | D 4.16 | Y 2.62 | L 3.01 | E 3.45
G9: N 2.82 | D 3.99 | F 2.2 | C 2.35 | L 2.68 | M 3.19 | W 2.82 | V 2.93 | I 1.9 | P 2.45 | K 2.14 | H 2.75
